Data: patent publication US20180155451A1 (published 2018)

T1: FcγRIIb (human, UniProt P31994 43-217)
T1 construct: extracellular domain; also called FcgRIIb; 2b; not shown: His tag at the C terminus
T1 sequence (looked up): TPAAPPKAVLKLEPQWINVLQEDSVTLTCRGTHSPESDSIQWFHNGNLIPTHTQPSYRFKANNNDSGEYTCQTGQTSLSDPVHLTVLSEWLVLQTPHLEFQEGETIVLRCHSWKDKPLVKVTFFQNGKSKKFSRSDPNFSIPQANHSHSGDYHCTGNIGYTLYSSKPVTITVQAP

T2: FcγRIIb extracellular domain with C-terminal His tag (human, UniProt P31994 43-217)
T2 construct: extracellular domain; also called 2b; FcgRIIb; not shown: His tag at the C terminus
T2 sequence (looked up): T1 sequence (looked up)

B1: GpH7-A5/GpH7-B3 variant Q295_11K/GpL16-k0 (antibody, human IgG1, kappa)
heavy 1: not shown
heavy 2: not shown
light: DIVMTQSPLSLPVTPGEPASISCQASESLVHSNRNTYLHWYLQKPGQSPQLLIYKVSNRFSGVPDRFSGSGSGTDFTLKISRVEAEDVGVYYCSQNTHVPPTFGQGTKVEIERTVAAPSVFIFPPSDEQLKSGTASVVCLLNNFYPREAKVQWKVDNALQSGNSQESVTEQDSKDSTYSLSSTLTLSKADYEKHKVYACEVTHQGLSSPVTKSFNRGEC
notes: He Ab: mutation only in the GpH7-B3 H chain; EU numbering; also called He Ab
B2: GpH7-A5/GpH7-B3 variant Q295_14T/GpL16-k0 (antibody, human IgG1, kappa)
heavy 1: not shown
heavy 2: not shown
light: B1 light
notes: as for B1
B3: GpH7-A5/GpH7-B3 variant S298_15Y/GpL16-k0 (antibody, human IgG1, kappa)
heavy 1: not shown
heavy 2: not shown
light: B1 light
notes: as for B1
B4: GpH7-A5/GpH7-B3 variant S267_09D/GpL16-k0 (antibody, human IgG1, kappa)
heavy 1: not shown
heavy 2: not shown
light: B1 light
notes: He Ab: mutation in the GpH7-B3 H chain only; also called He Ab
B5: GpH7-A5/GpH7-B3 variant T335_18N/GpL16-k0 (antibody, human IgG1, kappa)
heavy 1: not shown
heavy 2: not shown
light: B1 light
notes: as for B4
B6: GpH7-A5/GpH7-B3 variant V266_16H/GpL16-k0 (antibody, human IgG1, kappa)
heavy 1: not shown
heavy 2: not shown
light: B1 light
notes: as for B4
B7: GpH7-A5/GpH7-B3 variant V266_02A/GpL16-k0 (antibody, human IgG1, kappa)
heavy 1: not shown
heavy 2: not shown
light: B1 light
notes: as for B4
B8: GpH7-A5/GpH7-B3 variant S298_04F/GpL16-k0 (antibody, human IgG1, kappa)
heavy 1: not shown
heavy 2: not shown
light: B1 light
notes: as for B1
B9: GpH7-A5/GpH7-B3 variant S267_03V/GpL16-k0 (antibody, human IgG1, kappa)
heavy 1: not shown
heavy 2: not shown
light: B1 light
notes: as for B4
B10: GpH7-A5/GpH7-B3 variant S298_07I/GpL16-k0 (antibody, human IgG1, kappa)
heavy 1: not shown
heavy 2: not shown
light: B1 light
notes: as for B1
B11: GpH7-A5/GpH7-B3 variant V266_19Q/GpL16-k0 (antibody, human IgG1, kappa)
heavy 1: not shown
heavy 2: not shown
light: B1 light
notes: as for B4
B12: GpH7-A5/GpH7-B3 variant V266_15Y/GpL16-k0 (antibody, human IgG1, kappa)
heavy 1: not shown
heavy 2: not shown
light: B1 light
notes: as for B4
B13: GpH7-A5/GpH7-B3 variant Q295_15Y/GpL16-k0 (antibody, human IgG1, kappa)
heavy 1: not shown
heavy 2: not shown
light: B1 light
notes: as for B1
B14: GpH7-A5/GpH7-B3 variant Q295_12R/GpL16-k0 (antibody, human IgG1, kappa)
heavy 1: not shown
heavy 2: not shown
light: B1 light
notes: as for B1
B15: GpH7-A5/GpH7-B3 variant V266_09D/GpL16-k0 (antibody, human IgG1, kappa)
heavy 1: not shown
heavy 2: not shown
light: B1 light
notes: as for B4
B16: GpH7-A5/GpH7-B3 variant T335_04F/GpL16-k0 (antibody, human IgG1, kappa)
heavy 1: not shown
heavy 2: not shown
light: B1 light
notes: as for B4
B17: GpH7-A5/GpH7-B3 variant S298_12R/GpL16-k0 (antibody, human IgG1, kappa)
heavy 1: not shown
heavy 2: not shown
light: B1 light
notes: as for B1
B18: GpH7-A5/GpH7-B3 variant V266_04F/GpL16-k0 (antibody, human IgG1, kappa)
heavy 1: not shown
heavy 2: not shown
light: B1 light
notes: as for B4
B19: GpH7-A5/GpH7-B3 variant V266_18N/GpL16-k0 (antibody, human IgG1, kappa)
heavy 1: not shown
heavy 2: not shown
light: B1 light
notes: as for B4
B20: GpH7-A5/GpH7-B3 variant Q295_16H/GpL16-k0 (antibody, human IgG1, kappa)
heavy 1: not shown
heavy 2: not shown
light: B1 light
notes: as for B1
B21: GpH7-A5/GpH7-B3 variant Q295_13S/GpL16-k0 (antibody, human IgG1, kappa)
heavy 1: not shown
heavy 2: not shown
light: B1 light
notes: as for B1
B22: GpH7-A5/GpH7-B3 variant V266_11K/GpL16-k0 (antibody, human IgG1, kappa)
heavy 1: not shown
heavy 2: not shown
light: B1 light
notes: as for B4
B23: GpH7-A5/GpH7-B3 variant S267_08L/GpL16-k0 (antibody, human IgG1, kappa)
heavy 1: not shown
heavy 2: not shown
light: B1 light
notes: as for B4
B24: GpH7-A5/GpH7-B3 variant S267_04F/GpL16-k0 (antibody, human IgG1, kappa)
heavy 1: not shown
heavy 2: not shown
light: B1 light
notes: as for B4

Key:
[1] = molecular target: T1, FcγRIIb; test: SPR (Biacore), captured antibody, soluble FcγR; relative to GpH7-A5/GpH7-B3/GpL16-k0
[2] = molecular target: T3, FcγRIa (human, UniProt P12314 16-292); test: as above
T3 construct: extracellular domain; also called FcgRI; 1a; not shown: His tag at the C terminus

[3] = molecular target: T2, FcγRIIb extracellular domain with …; test: SPR (Biacore), relative binding, GpH7-A5/GpH7-B3/GpL16-k0 = 100
[4] = molecular target: T4, FcγRIIIa extracellular domain with C-terminal His tag (human, UniProt P08637 17-208); test: as above
T4 construct: extracellular domain; also called 3a; FcgRIIIa; not shown: His tag at the C terminus
T4 sequence (P08637 17-208): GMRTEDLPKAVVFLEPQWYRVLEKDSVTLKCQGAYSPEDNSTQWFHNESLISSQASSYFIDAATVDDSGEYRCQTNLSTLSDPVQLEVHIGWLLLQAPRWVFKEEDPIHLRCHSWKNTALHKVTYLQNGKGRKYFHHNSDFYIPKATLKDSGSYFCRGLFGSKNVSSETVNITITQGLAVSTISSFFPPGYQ

T3 sequence (P12314 16-292): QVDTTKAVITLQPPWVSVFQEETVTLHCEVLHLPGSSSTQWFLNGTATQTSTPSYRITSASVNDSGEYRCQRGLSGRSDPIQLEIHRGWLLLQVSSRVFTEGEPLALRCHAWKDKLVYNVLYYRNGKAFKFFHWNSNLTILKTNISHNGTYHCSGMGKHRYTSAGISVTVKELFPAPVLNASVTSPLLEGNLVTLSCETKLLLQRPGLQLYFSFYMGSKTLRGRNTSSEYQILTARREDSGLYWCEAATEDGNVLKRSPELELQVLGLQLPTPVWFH

| Binder | He/Con_2b [1] | He/Con_1a [2] | He/Con_2b [3] | He/Con_3a [4] |
| --- | --- | --- | --- | --- |
| B1 | 70.4 relative, HeCon Ab = 100 | 101 relative, HeCon Ab = 100 | – | – |
| B2 | 66.8 relative, HeCon Ab = 100 | 103 relative, HeCon Ab = 100 | – | – |
| B3 | 61.4 relative, HeCon Ab = 100 | 107 relative, HeCon Ab = 100 | – | – |
| B4 | – | – | 310 % of control | 181 % of control |
| B5 | – | – | 102 % of control | 98.8 % of control |
| B6 | – | – | 57.2 % of control | 21.3 % of control |
| B7 | – | – | 81 % of control | 57.4 % of control |
| B8 | 65.4 relative, HeCon Ab = 100 | 109 relative, HeCon Ab = 100 | – | – |
| B9 | – | – | 192 % of control | 30.8 % of control |
| B10 | 70.6 relative, HeCon Ab = 100 | 107 relative, HeCon Ab = 100 | – | – |
| B11 | – | – | 89.2 % of control | 34.7 % of control |
| B12 | – | – | 49.4 % of control | 14.5 % of control |
| B13 | 65.4 relative, HeCon Ab = 100 | 102 relative, HeCon Ab = 100 | – | – |
| B14 | 65.2 relative, HeCon Ab = 100 | 100 relative, HeCon Ab = 100 | – | – |
| B15 | – | – | 10.1 % of control | 2.7 % of control |
| B16 | – | – | 103 % of control | 96 % of control |
| B17 | 57.8 relative, HeCon Ab = 100 | 109 relative, HeCon Ab = 100 | – | – |
| B18 | – | – | 57.6 % of control | 34.7 % of control |
| B19 | – | – | 69.7 % of control | 30.4 % of control |
| B20 | 62.7 relative, HeCon Ab = 100 | 102 relative, HeCon Ab = 100 | – | – |
| B21 | 56.9 relative, HeCon Ab = 100 | 102 relative, HeCon Ab = 100 | – | – |
| B22 | – | – | 1 % of control | -0.7 % of control |
| B23 | – | – | 109 % of control | 19.5 % of control |
| B24 | – | – | 48 % of control | 11 % of control |
